Laboratory results reported in PMC12136000.

Target: FLAG-tagged eIF3d (wild-type eIF3D-FLAG) (UniProt O15371)
Assay: co-IP; HeLa lysate (50 mM Tris pH7.5, 150 mM NaCl, 1% Triton-X, Benzonase) on anti-flag-beads for 2 h at 4 °C, three washes, western blot; cells treated for 2 h with DMSO or with 3 µM of the CK2 inhibitor CX-5011 before lysis

UniProt O15371, sequence (O15371 whole entry): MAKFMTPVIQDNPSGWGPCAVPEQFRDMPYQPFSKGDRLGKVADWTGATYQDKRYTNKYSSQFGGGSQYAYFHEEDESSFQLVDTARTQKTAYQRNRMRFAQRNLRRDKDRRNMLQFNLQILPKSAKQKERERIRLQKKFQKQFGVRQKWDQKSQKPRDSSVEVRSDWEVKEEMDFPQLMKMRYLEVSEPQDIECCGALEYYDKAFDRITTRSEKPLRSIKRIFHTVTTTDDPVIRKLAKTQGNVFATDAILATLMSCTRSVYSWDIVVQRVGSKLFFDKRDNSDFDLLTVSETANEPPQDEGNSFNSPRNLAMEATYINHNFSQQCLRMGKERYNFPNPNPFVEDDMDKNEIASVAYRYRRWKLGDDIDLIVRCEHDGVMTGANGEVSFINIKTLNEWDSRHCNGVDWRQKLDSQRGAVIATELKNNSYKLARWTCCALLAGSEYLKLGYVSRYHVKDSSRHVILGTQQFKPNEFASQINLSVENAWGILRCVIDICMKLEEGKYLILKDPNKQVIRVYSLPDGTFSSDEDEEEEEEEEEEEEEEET

decrease of co-precipitation (IP relative to input) after the CK2 inhibitor CX-5011: 37 % decrease
Substance: eIF4A (from UniProt P60842 1-406) (natural protein)
